Assays:
proteasome = experiment: Proteasome inhibitor treatment of cells expressing pro-TGFalpha; type: cell-based; settings: 2 μM
Protocol: Cell culture and cell-based rhomboid cleavage assay. Cells were propagated in DMEM supplemented with 10% fetal calf serum. COS-7 cells were transfected in 35 mm wells with FuGENE 6 (Roche) as described (7). In brief, 250 ng plasmid encoding the substrate (as indicated in the description of the figures), 25 ng for the rhomboid tested, 50 ng for the GRP receptor and empty plasmid to bring the total DNA to 1 μg was used. For protease titration, 2.5 ng to 250 ng plasmid coding RHBDL4 was used. HeLa and HEK293T were transfected with polyethyleneimine (linear, MW 25000; Polysciences) as described (32) using twice the amount of DNA as used with FuGENE. Transfection efficiency was monitored by co-transfection of pEGFP (Invitrogen). Sixteen hours post transfection, medium was replaced with serum-free medium containing 10 μM BB94 (British Biotech) unless otherwise stated. For activation of endogenous rhomboid activity, phorbol 12-myristate 13-acetate (PMA) (1 μM, from Sigma) or bombesin (100 nM, from Sigma) was added to the cell medium. […] Cells were solubilized in SDS-sample buffer and analyzed by SDS-PAGE. […] The precipitate was recovered by centrifugation, washed with acetone and dissolved in SDS-PAGE sample buffer and analyzed by SDS-PAGE. […] Subsequently beads were washed with 20 mM Tris-Cl pH 8.0, 50 mM imidazole, eluted with SDS-sample buffer and analyzed by SDS-PAGE and Western blotting (see below). […]

[1] = molecular target: T1, in vitro translated substrate comprising the transmembrane domain of Drosophila Gurken, P42287
T1 chain: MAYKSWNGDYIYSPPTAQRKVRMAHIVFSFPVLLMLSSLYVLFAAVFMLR

[2] = molecular target: human pro-TGFalpha, P01135
Chain of human pro-TGFalpha, P01135 (P01135 whole entry, looked up): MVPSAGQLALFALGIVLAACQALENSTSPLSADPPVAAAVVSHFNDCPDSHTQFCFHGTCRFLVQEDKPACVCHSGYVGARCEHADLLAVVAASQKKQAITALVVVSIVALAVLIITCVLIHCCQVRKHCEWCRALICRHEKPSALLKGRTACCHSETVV

Drosophila Spitz, Q01083 = molecular target: T2, Drosophila Spitz, Q01083
T2 chain: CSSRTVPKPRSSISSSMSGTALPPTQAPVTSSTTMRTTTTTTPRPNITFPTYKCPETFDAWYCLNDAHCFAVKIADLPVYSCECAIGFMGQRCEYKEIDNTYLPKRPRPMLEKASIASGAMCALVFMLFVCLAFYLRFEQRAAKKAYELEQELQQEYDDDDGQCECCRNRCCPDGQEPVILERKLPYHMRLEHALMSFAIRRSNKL

`CC[C@H](C)[C@H](NC(=O)[C@H]([C@@H](C)CC)N(C)C(C)=O)C(=O)N[C@H](C(=O)N[C@@H](CC(C)C)C(=O)[C@@]1(C)CO1)[C@@H](C)O` [epoxomicin] was tested, and the “Effect on pro-TGFalpha forms (proteasomal degradation)” value (proteasome) was “led to unglycosylated TGFalpha”.

B1: recombinant mouse RHBDL1 from E. coli (protein)
chain: MDRSSLLQLIQEQQLDPENTGFIGADTFAGLVHSHELPLDPTKLDMLVALAQSNERGQVCYQELVDLISSKRSSSFKRAIANGQRALPRDGLLDEPGLSVYKRFVRYVAYEILPCEVDRRWYFYRHRTCPPPVFMASVTLAQIIVFLCYGARLNKWVLQTYHPEYMKSPLVYHPGHRARAWRFLTYMFMHVGLEQLGFNALLQLMIGVPLEMVHGVLRISLLYLAGVLAGSLTVSITDMRAPVVGGSGGVYALCSAHLANVVMNWAGMRCPYKLLRMVLALVCMSSEVGRAVWLRFSPPLPASGPQPSFMAHLAGAVVGVSMGLTILRSYEERLRDQCGWWVVLLAYGTFLLFAIFWNVFAYDLLGADIPPPP
In the case of B1, the “in vitro cleavage assay (SDS-PAGE, decrease of intact substrate band)” value [1] is reported as “The substrate was cleaved, as indicated by the decreased amount of intact substrate band”.

B2: mouse RHBDL1 with an N-terminal HA3-tag (protein)
chain: MDRSSLLQLIQEQQLDPENTGFIGADTFAGLVHSHELPLDPTKLDMLVALAQSNERGQVCYQELVDLISSKRSSSFKRAIANGQRALPRDGLLDEPGLSVYKRFVRYVAYEILPCEVDRRWYFYRHRTCPPPVFMASVTLAQIIVFLCYGARLNKWVLQTYHPEYMKSPLVYHPGHRARAWRFLTYMFMHVGLEQLGFNALLQLMIGVPLEMVHGVLRISLLYLAGVLAGSLTVSITDMRAPVVGGSGGVYALCSAHLANVVMNWAGMRCPYKLLRMVLALVCMSSEVGRAVWLRFSPPLPASGPQPSFMAHLAGAVVGVSMGLTILRSYEERLRDQCGWWVVLLAYGTFLLFAIFWNVFAYDLLGADIPPPP
B2 was tested, and the “secreted 37 kDa product, FLAG6-tagged pro-TGFalpha (Western blot)” value [2] was “overexpression of RHBDL1 caused a minor increase of secreted 37 kDa product”.

B3: recombinant human RHBDL2 from E. coli (protein)
chain: MAAVHDLEMESMNLNMGREMKEELEEEEKMREDGGGKDRAKSKKVHRIVSKWMLPEKSRGTYLERANCFPPPVFIISISLAELAVFIYYAVWKPQKQWITLDTGILESPFIYSPEKREEAWRFISYMLVHAGVQHILGNLCMQLVLGIPLEMVHKGLRVGLVYLAGVIAGSLASSIFDPLRYLVGASGGVYALMGGYFMNVLVNFQEMIPAFGIFRLLIIILIIVLDMGFALYRRFFVPEDGSPVSFAAHIAGGFAGMSIGYTVFSCFDKALLKDPRFWIAIAAYLACVLFAVFFNIFLSPAN
In the case of B3, the “in vitro cleavage assay (SDS-PAGE, decrease of intact substrate band)” value [1] is reported as “The substrate was cleaved, as indicated by the decreased amount of intact substrate band”.

B4: mouse RHBDL4 with an N-terminal HA3-tag (protein)
chain: MQRRTRGINTGLLLLLSQVFQIGINNIPPVTLATLAVNVWFFLNPWKPLYHSCISVEKCYQQKDWQRLLLSPLHHGDDWHLYFNMVSMLWKGVKLERRLGSRWFAYVIATFSLLTGVVYLLLQFTVAELLNQPDFKRNCAVGFSGVLFALKVLSNHYCPGGFVNILGFPVPNRFACWAELVAIHFCTPGTSFAGHLAGILVGLMYTQGPLKKIMDTCAGIFISHAGPSGQQNHFNNAGPSGYQNHYADGRPVTYDATYRNYDVYTAGLSEEEQLERALRASIWDRGNTRNGPMPYGFRLPPEEMRRQRLHRFDGQ
With B4 the cleavage (Drosophila Spitz, Q01083) was “Note that RHBDL4 cleaves Spitz” and the “cleavage of pro-TGFalpha, titration of protease plasmid (Western blot)” value [2] was “cleavage of TGFalpha requires sub-stoichiometric amounts of RHBDL4”.

B5: recombinant mouse RHBDL4, C-terminally His6-tagged, from E. coli (protein)
chain: MQRRTRGINTGLLLLLSQVFQIGINNIPPVTLATLAVNVWFFLNPWKPLYHSCISVEKCYQQKDWQRLLLSPLHHGDDWHLYFNMVSMLWKGVKLERRLGSRWFAYVIATFSLLTGVVYLLLQFTVAELLNQPDFKRNCAVGFSGVLFALKVLSNHYCPGGFVNILGFPVPNRFACWAELVAIHFCTPGTSFAGHLAGILVGLMYTQGPLKKIMDTCAGIFISHAGPSGQQNHFNNAGPSGYQNHYADGRPVTYDATYRNYDVYTAGLSEEEQLERALRASIWDRGNTRNGPMPYGFRLPPEEMRRQRLHRFDGQ
B5 was tested, and the “in vitro cleavage assay (SDS-PAGE, decrease of intact substrate band)” value [1] was “The substrate was cleaved, as indicated by the decreased amount of intact substrate band”.
